Our source for the Percentage inhibition (%) values is patent publication US20220315554A1, “COMPOUNDS COMPRISING A […] LIGAND AND USE THEREOF” (priority 2019, published 2022).

In test [1] the target is DPP8 (Homo sapiens (Human)) (UniProt Q6V1X1).
Test [2] addresses DPP9 (Homo sapiens (Human)) (UniProt Q86TI2).
Test [3] addresses Ubiquitin carboxy-terminal hydrolase 5 (Homo sapiens (Human)) (UniProt P45974).
The target of test [4] is Cathepsin V (Homo sapiens (Human)) (UniProt O60911).
Test [5] concerns the target Cathepsin S (Homo sapiens (Human)) (UniProt P25774).
Test [6] addresses T1, Caspase-7 (Homo sapiens (Human)) (UniProt P55210).
T1 sequence: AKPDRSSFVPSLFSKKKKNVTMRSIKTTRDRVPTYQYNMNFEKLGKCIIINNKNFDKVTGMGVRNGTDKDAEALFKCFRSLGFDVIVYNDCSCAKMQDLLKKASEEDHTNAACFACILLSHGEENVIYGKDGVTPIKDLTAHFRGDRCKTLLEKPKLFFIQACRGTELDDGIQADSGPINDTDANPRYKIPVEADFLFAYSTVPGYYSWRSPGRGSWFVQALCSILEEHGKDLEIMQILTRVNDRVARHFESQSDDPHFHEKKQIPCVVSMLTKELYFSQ

Test [7] deals with Ataxin3 (Homo sapiens (Human)) (UniProt P54252).
Chain of Ataxin3 (Homo sapiens (Human)) (P54252 whole entry): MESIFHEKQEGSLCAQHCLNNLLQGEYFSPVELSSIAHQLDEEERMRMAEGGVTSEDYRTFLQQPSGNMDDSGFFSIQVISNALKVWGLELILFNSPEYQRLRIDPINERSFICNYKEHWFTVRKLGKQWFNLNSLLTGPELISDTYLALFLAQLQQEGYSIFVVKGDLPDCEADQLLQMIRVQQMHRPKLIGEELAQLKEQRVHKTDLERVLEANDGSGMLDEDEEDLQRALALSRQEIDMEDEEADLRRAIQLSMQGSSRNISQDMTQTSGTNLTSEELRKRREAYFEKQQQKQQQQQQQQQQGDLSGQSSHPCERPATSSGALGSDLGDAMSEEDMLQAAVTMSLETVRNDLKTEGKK
The target of test [8] is T2, Cathepsin F (Homo sapiens (Human)) (UniProt Q9UBX1).
T2 sequence: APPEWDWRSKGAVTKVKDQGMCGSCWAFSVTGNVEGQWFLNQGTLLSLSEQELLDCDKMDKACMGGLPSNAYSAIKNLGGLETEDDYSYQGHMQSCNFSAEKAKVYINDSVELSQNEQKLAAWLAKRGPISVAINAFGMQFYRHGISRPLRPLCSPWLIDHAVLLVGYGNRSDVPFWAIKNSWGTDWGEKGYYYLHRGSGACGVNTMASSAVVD

The target of test [9] is Activated Protein C (Homo sapiens (Human)) (UniProt P04070).
Chain of Activated Protein C (Homo sapiens (Human)) (P04070 43-461): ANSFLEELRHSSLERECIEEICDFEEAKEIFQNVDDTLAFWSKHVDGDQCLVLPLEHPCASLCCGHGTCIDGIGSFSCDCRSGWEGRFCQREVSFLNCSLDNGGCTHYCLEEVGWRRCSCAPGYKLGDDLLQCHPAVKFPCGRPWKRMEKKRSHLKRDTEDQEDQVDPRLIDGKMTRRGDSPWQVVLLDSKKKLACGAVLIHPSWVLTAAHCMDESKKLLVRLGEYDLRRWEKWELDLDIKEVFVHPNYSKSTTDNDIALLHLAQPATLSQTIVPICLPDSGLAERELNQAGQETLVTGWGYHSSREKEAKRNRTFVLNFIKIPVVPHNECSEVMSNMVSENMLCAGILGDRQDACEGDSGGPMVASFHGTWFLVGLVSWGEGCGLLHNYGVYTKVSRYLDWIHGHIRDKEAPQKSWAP
For test [10], the target named is Ubiquitin carboxy-terminal hydrolase L1 (Homo sapiens (Human)) (UniProt P09936).
For test [11], the target named is T3, Ubiquitin carboxy-terminal hydrolase 2 (Homo sapiens (Human)) (UniProt O75604).
T3 sequence: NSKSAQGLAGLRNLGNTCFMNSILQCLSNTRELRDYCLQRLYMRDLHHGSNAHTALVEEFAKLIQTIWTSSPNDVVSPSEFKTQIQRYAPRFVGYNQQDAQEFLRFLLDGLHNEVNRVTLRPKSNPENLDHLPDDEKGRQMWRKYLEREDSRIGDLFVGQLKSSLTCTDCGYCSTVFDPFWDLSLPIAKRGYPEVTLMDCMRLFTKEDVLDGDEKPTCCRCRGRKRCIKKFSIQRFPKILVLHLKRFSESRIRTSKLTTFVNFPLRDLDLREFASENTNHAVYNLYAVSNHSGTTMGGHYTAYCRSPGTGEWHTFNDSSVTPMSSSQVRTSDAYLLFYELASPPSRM

The target of test [12] is T4, Deubiquitinase OTUD6B (Homo sapiens (Human)) (UniProt Q8N6M0).
T4 sequence: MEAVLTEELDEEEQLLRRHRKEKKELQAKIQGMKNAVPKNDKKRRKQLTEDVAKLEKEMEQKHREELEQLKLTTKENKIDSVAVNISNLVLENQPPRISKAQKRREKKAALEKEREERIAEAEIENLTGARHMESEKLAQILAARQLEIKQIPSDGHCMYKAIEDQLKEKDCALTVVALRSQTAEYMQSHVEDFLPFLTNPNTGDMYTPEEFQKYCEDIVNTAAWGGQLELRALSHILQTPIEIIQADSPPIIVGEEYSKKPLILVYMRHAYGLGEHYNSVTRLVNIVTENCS

Test [13] addresses T5, Renin (Homo sapiens (Human)) (UniProt P00797).
T5 sequence: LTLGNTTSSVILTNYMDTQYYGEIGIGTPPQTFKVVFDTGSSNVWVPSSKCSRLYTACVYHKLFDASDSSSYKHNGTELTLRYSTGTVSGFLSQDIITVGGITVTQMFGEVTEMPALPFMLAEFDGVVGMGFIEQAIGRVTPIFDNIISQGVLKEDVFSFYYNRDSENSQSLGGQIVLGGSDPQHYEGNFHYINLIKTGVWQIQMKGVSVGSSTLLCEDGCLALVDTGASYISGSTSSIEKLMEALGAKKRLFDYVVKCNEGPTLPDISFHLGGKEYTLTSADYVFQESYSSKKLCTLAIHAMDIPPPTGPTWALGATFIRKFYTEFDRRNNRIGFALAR

For test [14], the target named is Caspase-8 (Homo sapiens (Human)) (UniProt Q14790).
Chain of Caspase-8 (Homo sapiens (Human)) (Q14790 217-479 limits assumed): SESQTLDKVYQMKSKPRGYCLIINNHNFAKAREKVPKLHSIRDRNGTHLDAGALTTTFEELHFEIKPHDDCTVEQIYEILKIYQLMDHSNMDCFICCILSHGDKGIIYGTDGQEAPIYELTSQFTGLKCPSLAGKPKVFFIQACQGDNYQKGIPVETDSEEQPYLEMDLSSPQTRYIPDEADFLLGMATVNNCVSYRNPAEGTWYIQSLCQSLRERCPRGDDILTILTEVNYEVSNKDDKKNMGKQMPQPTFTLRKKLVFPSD
In test [15] the target is Cathepsin L (Homo sapiens (Human)) (UniProt P07711).
Test [16] addresses T6, A20 (Homo sapiens (Human)) (UniProt P21580).
T6 sequence: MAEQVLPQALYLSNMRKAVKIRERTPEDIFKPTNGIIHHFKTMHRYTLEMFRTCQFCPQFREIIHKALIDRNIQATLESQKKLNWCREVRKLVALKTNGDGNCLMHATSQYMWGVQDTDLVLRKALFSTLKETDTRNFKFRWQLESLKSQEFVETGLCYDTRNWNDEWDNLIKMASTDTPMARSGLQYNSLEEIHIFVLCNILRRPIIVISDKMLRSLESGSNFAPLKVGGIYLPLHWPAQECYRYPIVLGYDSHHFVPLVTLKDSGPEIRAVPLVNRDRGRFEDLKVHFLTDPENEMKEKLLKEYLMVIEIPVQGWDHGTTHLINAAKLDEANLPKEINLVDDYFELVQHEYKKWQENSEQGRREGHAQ

Test [17] has as its target FAP (Homo sapiens (Human)) (UniProt Q12884).
Test [18] has as its target Ubiquitin carboxy-terminal hydrolase 14 (Homo sapiens (Human)) (UniProt P54578).
Test [19] addresses Caspase-9 (Homo sapiens (Human)) (UniProt P55211).
Test [20] addresses Ubiquitin carboxy-terminal hydrolase 8 (Homo sapiens (Human)) (UniProt P40818).
For test [21], the target named is Matrix metalloprotease 2 (Homo sapiens (Human)) (UniProt P08253).
Chain of Matrix metalloprotease 2 (Homo sapiens (Human)) (P08253 110-660): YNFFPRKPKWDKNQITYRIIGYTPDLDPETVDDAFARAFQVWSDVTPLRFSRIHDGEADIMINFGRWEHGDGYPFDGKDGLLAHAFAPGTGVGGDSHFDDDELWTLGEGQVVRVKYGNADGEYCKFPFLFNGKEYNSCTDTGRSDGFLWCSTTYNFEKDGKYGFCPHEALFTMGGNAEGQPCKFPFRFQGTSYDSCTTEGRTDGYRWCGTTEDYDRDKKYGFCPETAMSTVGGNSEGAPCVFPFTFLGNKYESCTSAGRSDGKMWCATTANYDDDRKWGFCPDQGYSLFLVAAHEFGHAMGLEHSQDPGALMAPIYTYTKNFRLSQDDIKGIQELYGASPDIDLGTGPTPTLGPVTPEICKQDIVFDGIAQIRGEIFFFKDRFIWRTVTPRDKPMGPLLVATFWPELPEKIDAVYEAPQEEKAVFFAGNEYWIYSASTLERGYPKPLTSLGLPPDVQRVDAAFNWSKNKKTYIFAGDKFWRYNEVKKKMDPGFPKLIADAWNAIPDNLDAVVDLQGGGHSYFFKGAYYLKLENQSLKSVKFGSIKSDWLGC
Test [22] addresses T7, Caspase-6 (Homo sapiens (Human)) (UniProt P55212).
T7 sequence: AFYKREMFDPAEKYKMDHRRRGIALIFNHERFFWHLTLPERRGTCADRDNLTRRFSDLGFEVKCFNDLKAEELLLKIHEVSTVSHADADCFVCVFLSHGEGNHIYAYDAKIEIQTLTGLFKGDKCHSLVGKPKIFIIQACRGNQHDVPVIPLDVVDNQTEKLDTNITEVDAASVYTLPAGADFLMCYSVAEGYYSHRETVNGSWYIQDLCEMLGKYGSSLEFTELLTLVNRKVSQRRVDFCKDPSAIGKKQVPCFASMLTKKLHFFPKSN

Chain of Ubiquitin carboxy-terminal hydrolase 5 (Homo sapiens (Human)) (P45974 whole entry): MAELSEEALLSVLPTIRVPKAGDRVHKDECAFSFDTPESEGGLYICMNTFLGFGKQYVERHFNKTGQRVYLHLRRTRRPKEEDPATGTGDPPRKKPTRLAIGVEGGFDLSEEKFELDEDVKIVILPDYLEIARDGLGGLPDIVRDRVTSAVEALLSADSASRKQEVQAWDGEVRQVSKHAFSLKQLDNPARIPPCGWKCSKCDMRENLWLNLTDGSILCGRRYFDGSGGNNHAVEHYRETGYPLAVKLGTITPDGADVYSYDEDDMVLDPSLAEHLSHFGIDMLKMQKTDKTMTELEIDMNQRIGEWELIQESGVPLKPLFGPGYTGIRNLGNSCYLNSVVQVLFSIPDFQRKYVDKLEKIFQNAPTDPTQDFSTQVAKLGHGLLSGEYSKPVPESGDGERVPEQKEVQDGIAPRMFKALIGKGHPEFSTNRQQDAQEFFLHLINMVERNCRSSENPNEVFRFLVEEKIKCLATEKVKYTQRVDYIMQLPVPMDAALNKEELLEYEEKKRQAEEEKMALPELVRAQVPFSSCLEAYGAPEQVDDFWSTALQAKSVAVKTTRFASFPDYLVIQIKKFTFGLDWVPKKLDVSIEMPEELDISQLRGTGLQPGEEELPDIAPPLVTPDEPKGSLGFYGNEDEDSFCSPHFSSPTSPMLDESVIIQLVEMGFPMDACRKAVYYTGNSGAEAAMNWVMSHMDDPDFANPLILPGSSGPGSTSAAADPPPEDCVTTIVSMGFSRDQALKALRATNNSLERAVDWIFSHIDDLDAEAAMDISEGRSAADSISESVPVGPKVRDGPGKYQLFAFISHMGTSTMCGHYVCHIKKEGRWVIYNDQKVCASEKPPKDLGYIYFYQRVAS
Chain of Caspase-9 (Homo sapiens (Human)) (P55211 whole entry): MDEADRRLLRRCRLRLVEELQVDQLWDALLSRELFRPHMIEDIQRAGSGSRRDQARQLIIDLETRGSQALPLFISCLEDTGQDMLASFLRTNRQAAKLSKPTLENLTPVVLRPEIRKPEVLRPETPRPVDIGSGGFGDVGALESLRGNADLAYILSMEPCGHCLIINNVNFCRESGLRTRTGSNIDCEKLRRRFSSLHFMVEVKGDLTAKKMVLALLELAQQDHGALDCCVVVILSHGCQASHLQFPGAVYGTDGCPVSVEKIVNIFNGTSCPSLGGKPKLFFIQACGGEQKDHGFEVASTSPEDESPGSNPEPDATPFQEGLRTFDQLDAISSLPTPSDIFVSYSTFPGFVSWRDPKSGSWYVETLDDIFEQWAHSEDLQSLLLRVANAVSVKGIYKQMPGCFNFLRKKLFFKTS
Chain of FAP (Homo sapiens (Human)) (Q12884 26-760 limits assumed): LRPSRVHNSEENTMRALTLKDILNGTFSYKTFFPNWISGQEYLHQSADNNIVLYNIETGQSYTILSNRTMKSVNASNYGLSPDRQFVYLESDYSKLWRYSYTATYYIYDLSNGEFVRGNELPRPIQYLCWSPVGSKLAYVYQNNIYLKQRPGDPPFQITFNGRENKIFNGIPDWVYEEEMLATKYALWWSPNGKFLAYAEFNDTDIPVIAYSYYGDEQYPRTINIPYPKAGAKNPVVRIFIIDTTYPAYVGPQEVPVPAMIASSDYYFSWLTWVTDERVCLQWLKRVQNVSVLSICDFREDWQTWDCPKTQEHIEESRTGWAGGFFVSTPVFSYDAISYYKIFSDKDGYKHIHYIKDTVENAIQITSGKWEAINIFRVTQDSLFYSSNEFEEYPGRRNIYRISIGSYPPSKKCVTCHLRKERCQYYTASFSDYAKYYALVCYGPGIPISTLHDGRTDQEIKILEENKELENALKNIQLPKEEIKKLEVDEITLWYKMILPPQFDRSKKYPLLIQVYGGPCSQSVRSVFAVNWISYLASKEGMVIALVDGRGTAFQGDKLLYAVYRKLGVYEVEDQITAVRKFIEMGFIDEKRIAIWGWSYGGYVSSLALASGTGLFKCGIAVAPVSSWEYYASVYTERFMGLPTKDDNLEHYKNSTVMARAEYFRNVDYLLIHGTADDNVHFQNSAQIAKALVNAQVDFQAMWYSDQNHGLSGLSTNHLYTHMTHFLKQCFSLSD

For the substance “Hex-[Cys(tMeBn(DOTA-AET))-Pro-Pro-Thr-Gln-Phe-Cys]-OH (peptide)”, the Percentage inhibition (%) at 10 µM in test [1] was 11%; in test [2] it was -5%; in test [3] it was -2%; in test [4] it was -1%; in test [5], -23%; in test [6] it was -7%. Further, the Percentage inhibition (%) at 10 µM in [7] was -1%; in test [8] it was -25%; in test [9] it was 1%; in test [10], 4%; in test [11] it was -1%; in test [12] it was 0%. For the same substance, the Percentage inhibition (%) at 10 µM in test [13] was -1%; in test [14], -3%; in [15], -6%; in [16], 0%; in test [18] it was 2%; in test [19], -2%. Further, the Percentage inhibition (%) at 10 µM in test [20] was 1%; in test [21] it was -2%; in test [22], -3%. Moreover, the Percentage inhibition (%) at 1 µM in [17] came out at 97%.
In the case of “Hex-[Cys(tMeBn(DOTA-PP))-Pro-Pro-Thr-Gln-Phe-Cys]-Asp-NH2 (peptide)”, the Percentage inhibition (%) at 10 µM is 5% in test [1]; 0% in [2]; 46% in test [3]; -18% in test [4]; 18% in [5]; -3% in test [6]. Moreover, the Percentage inhibition (%) at 10 µM in [7] was 10%; in test [8] it was -24%; in test [9] it was 8%; in test [10], 4%; in test [11] it was 7%; in test [12], 15%. Besides, the Percentage inhibition (%) at 10 µM in [13] is 3%; in [14], 0%; in test [15] it was 6%; in test [16], -4%; in [18] it was 5%; in test [19], 8%. Also, the Percentage inhibition (%) at 10 µM in test [20] was 6%; in test [21], 3%; in test [22], -1%. Moreover, in [17], the Percentage inhibition (%) at 1 µM was found to be 98%.
